From US20190225669A1 (ACCELERON PHARMA, published 2019)
Like-named read-outs stand apart in the source and are kept apart here. Values belong to the binder of their own block, whether it stands above or below them.

How the values were obtained:
BMP6 [1] = target: T1, BMP6 (UniProt P22004 382-513, limits assumed); assay: Biacore SPR
T1 sequence (looked up): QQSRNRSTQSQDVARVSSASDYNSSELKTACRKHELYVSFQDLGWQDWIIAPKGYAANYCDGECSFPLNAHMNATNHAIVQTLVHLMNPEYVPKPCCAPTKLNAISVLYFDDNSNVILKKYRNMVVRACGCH

BMP2 = BMP2 (UniProt P12643 283-396); assay: Biacore SPR
Chain of BMP2 (P12643 283-396 limits assumed): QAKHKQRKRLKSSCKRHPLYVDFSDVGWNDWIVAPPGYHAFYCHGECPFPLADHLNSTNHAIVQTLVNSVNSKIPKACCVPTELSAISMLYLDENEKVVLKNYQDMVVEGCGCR
Procedure: (§1) Ligands were injected and allowed to flow over the captured receptor protein.

BMP4 = target: T2, BMP4 (UniProt P12644 293-408); assay: Biacore SPR
T2 sequence (looked up): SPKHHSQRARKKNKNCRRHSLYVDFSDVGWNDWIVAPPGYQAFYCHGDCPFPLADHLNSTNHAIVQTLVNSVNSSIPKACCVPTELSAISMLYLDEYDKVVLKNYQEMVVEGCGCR
Procedure: as §1

BMP5 [2] = target: T3, BMP5 (UniProt P22003 317-454, limits assumed); assay: Biacore SPR
T3 sequence (looked up): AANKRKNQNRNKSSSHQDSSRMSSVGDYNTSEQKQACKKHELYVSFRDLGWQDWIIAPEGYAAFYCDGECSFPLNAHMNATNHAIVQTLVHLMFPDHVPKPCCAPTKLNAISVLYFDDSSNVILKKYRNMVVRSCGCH
Procedure: as §1

BMP6 [3] = target: T1, BMP6; assay: Biacore SPR; remark: listed apart in the source
Procedure: as §1

BMP7 = target: T4, BMP7 (UniProt P18075 293-431); assay: Biacore SPR
T4 sequence (looked up): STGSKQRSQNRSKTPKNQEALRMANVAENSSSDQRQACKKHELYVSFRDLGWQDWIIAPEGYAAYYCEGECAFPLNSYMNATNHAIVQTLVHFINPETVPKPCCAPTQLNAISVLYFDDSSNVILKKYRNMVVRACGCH
Procedure: as §1

BMP9 [4] = target: T5, BMP9 (UniProt Q9UK05 320-429); assay: Biacore SPR
T5 construct: also called GDF2
T5 sequence (looked up): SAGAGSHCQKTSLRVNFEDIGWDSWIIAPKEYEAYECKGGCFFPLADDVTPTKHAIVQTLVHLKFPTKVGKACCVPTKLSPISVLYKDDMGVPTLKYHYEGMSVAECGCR
Procedure: as §1

BMP10 [5] = target: T6, BMP10 (UniProt O95393 317-424); assay: Biacore SPR
T6 sequence (looked up): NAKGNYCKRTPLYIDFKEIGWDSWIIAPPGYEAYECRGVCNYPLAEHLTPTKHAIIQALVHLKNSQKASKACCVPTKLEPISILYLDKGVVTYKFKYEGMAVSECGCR
Procedure: as §1

BMP15 = target: T7, BMP15 (UniProt O95972 268-392); assay: Biacore SPR
T7 construct: also called GDF9b
T7 sequence (looked up): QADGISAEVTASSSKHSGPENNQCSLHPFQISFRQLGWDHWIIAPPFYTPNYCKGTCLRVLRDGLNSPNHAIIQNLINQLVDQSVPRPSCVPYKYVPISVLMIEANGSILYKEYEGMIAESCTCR
Procedure: as §1

GDF6 = target: T8, GDF6 (UniProt Q6KF10 336-455, limits assumed); assay: Biacore SPR
T8 construct: also called BMP13
T8 sequence (looked up): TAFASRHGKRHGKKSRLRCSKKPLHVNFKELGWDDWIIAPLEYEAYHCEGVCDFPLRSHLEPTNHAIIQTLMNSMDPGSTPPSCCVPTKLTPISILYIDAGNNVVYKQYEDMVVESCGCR
Procedure: as §1

activin A = target: T9, activin A (UniProt P08476 311-426); assay: Biacore SPR
T9 sequence (looked up): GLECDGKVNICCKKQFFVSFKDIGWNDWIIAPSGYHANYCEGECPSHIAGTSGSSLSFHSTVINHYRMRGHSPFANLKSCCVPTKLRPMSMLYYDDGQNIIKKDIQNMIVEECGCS
Procedure: as §1

activin B = target: T10, activin B (UniProt P09529 293-407); assay: Biacore SPR
T10 sequence (looked up): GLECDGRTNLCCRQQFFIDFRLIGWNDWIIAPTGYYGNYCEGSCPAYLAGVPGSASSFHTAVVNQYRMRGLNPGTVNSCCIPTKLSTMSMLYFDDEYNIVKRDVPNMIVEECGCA
Procedure: as §1

BMP5 [6] = target: T3, BMP5; assay: Biacore SPR; remark: listed apart in the source
Procedure: as §1

BMP6 [7] = target: T1, BMP6; assay: Biacore SPR; remark: listed apart in the source
Procedure: as §1

BMP9 [8] = target: T5, BMP9; assay: Biacore SPR; remark: listed apart in the source
Procedure: as §1

BMP10 [9] = target: T6, BMP10; assay: Biacore SPR; remark: listed apart in the source
Procedure: as §1

GDF3 = target: T11, GDF3 (UniProt Q9NR23 251-364); assay: Biacore SPR
T11 sequence (looked up): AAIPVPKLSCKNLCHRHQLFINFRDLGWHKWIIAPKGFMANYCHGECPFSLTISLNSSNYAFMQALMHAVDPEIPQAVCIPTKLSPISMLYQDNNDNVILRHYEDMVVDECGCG
Procedure: as §1

GDF8 = target: T12, GDF8 (UniProt O14793 267-375); assay: Biacore SPR
T12 construct: also called myostatin
T12 sequence (looked up): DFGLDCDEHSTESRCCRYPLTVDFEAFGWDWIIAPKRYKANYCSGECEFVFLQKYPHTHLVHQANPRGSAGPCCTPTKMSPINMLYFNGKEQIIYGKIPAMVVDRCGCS
Procedure: as §1

GDF11 = target: T13, GDF11 (UniProt O95390 299-407); assay: Biacore SPR
T13 construct: also called BMP11
T13 sequence (looked up): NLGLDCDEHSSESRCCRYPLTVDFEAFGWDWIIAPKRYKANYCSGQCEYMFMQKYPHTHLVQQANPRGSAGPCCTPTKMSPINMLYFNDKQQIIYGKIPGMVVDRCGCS
Procedure: as §1

TGFβ1 [10] = target: T14, TGFβ1 (human, UniProt P01137 279-390); assay: Biacore SPR
T14 construct: Human (PeproTech) is stated for the A549 reporter assay; also called TGF-beta1
T14 sequence (P01137 279-390 limits assumed): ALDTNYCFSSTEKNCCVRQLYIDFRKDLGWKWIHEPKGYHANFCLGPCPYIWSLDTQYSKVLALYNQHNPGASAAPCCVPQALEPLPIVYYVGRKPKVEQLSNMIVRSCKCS
Procedure: (§2) A Biacore™-based binding assay was used to compare ligand binding selectivity of the TGFβRIISHORT-Fc:ALK1-Fc heterodimeric complex described above with that of TGFβRIISHORT-Fc and ALK1-Fc homodimeric complexes. […] Ligands were injected and allowed to flow over the captured receptor protein.

TGFβ1 [11] = target: T14, TGFβ1; assay: Biacore SPR; remark: listed apart in the source
Procedure: (§3) The heteromeric or homomeric protein complexes were independently captured onto the system using an anti-Fc antibody. Ligands were injected and allowed to flow over the captured receptor protein.

TGFβ2 [12] = target: T15, TGFβ2 (human, UniProt P61812 303-414); assay: Biacore SPR
T15 construct: Human (PeproTech) is stated for the A549 reporter assay; also called TGF-beta2
T15 sequence (looked up): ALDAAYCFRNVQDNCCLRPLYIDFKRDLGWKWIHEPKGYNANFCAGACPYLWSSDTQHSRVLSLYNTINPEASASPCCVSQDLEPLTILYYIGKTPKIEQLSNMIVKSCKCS
Procedure: as §3

TGFβ1 [13] = target: T14, TGFβ1; assay: cell-based or functional assay
TGFβ2 [14] = target: T15, TGFβ2; assay: cell-based or functional assay
TGFβ2 [15] = target: T15, TGFβ2; assay: Biacore SPR; kinetics indeterminate (transient)
Procedure: as §2

off-rate ratio against ALK3-Fc homodimer (BMP6 [1]): ~10 fold | Kd (BMP2): 0.051 nM | koff (BMP2): 0.00015 s⁻¹ | kon (BMP2): 2.9e+06 M⁻¹ s⁻¹ | Kd (BMP4): 0.1 nM | koff (BMP4): 9.1e-05 s⁻¹ | kon (BMP4): 910000 M⁻¹ s⁻¹ | Kd (BMP5 [2]): 3.2 nM | koff (BMP5 [2]): 0.0014 s⁻¹ | kon (BMP5 [2]): 430000 M⁻¹ s⁻¹ | Kd (BMP6 [3]): 1.6 nM | koff (BMP6 [3]): 0.00059 s⁻¹ | kon (BMP6 [3]): 360000 M⁻¹ s⁻¹ | Kd (BMP7): 1 nM | koff (BMP7): 0.012 s⁻¹ | kon (BMP7): 1.2e+07 M⁻¹ s⁻¹ | binding result (BMP9 [4]): no binding | Kd (BMP10 [5]): 2.4 nM | koff (BMP10 [5]): 0.0016 s⁻¹ | kon (BMP10 [5]): 680000 M⁻¹ s⁻¹ | Kd (BMP15): 6 nM | koff (BMP15): 0.0055 s⁻¹ | kon (BMP15): 910000 M⁻¹ s⁻¹ | Kd (GDF6): 1.4 nM | koff (GDF6): 0.0019 s⁻¹ | kon (GDF6): 1.4e+06 M⁻¹ s⁻¹
B1: BMPRII-Fc:ALK3-Fc heterodimer (Fc fusion)
chain 1: SQNQERLCAFKDPYQQDLGIGESRISHENGTILCSKGSTCYGLWEKSKGDINLVKQGCWSHIGDPQECHYEECVVTTTPPSIQNGTYRFCCCSTDLCNVNFTENFPPPDTTPLSPPHSFNRDETGGGTHTCPPCPAPELLGGPSVFLFPPKPKDTLMISRTPEVTCVVVDVSHEDPEVKFNWYVDGVEVHNAKTKPREEQYNSTYRVVSVLTVLHQDWLNGKEYKCKVSNKALPAPIEKTISKAKGQPREPQVYTLPPSRKEMTKNQVSLTCLVKGFYPSDIAVEWESNGQPENNYKTTPPVLKSDGSFFLYSKLTVDKSRWQQGNVFSCSVMHEALHNHYTQKSLSLSPGK
chain 2: GAQNLDSMLHGTGMKSDSDQKKSENGVTLAPEDTLPFLKCYCSGHCPDDAINNTCITNGHCFAIIEEDDQGETTLASGCMKYEGSDFQCKDSPKAQLRRTIECCRTNLCNQYLQPTLPPVVIGPFFDGSIRTGGGTHTCPPCPAPELLGGPSVFLFPPKPKDTLMISRTPEVTCVVVDVSHEDPEVKFNWYVDGVEVHNAKTKPREEQYNSTYRVVSVLTVLHQDWLNGKEYKCKVSNKALPAPIEKTISKAKGQPREPQVYTLPPSREEMTKNQVSLTCLVKGFYPSDIAVEWESNGQPENNYDTTPPVLDSDGSFFLYSDLTVDKSRWQQGNVFSCSVMHEALHNHYTQKSLSLSPG
notes: C-terminal Lys optional; also called BMPRII-Fc:ALK3 heterodimer

binding result (activin A): no binding | binding result (activin B): no binding | binding result (BMP5 [6]): no binding | binding result (BMP6 [7]): no binding | binding result (BMP9 [8]): no binding | binding result (BMP10 [9]): no binding | binding result (GDF3): no binding | binding result (GDF8): no binding | binding result (GDF11): no binding
B2: ALK7-Fc homodimer (Fc fusion, UniProt Q8NER5 22-113, looked up, not shown: a dimerising Fc or GST)
chain: LSPGLKCVCLLCDSSNFTCQTEGACWASVMLTNGKEQVIKSCVSLPELNAQVFCHSSNNVTKTECCFTDFCNNITLHLPTASPNAPKLGPME
notes: extracellular domain

Kd (TGFβ1 [10]): 0.025 nM | Kd (TGFβ1 [11]): 0.02 nM | Kd (TGFβ2 [12]): 11 nM | IC50 (pM), CAGA12-luciferase reporter gene assay in A549 cells, TGFβ1 at 640 pg/mL (TGFβ1 [13]): 90 pM | IC50 (pM), CAGA12-luciferase reporter gene assay in A549 cells, TGFβ2 at 480 pg/mL (TGFβ2 [14]): > 10000 pM | Kd (TGFβ2 [15]): > 44 nM
B3: TGFβRIISHORT-Fc homodimer (Fc fusion)
chain: TIPPHVQKSVNNDMIVTDNNGAVKFPQLCKFCDVRFSTCDNQKSCMSNCSITSICEKPQEVCVAVWRKNDENITLETVCHDPKLPYHDFILEDAASPKCIMKEKKKPGETFFMCSCSSDECNDNIIFSEEYNTSNPD
